Experiment [1] addresses T1, full-length TRAK2 (TRAK2^1–914) (human, UniProt O60296 1-914).
T1 construct: TRAK2, human, residues 1-914, full length; source: HEK 293 F GNTI-/- cells, PEI transfection, purified (TRAK purification procedure); not shown: His6-ZZ, N-terminal, cleaved; SNAP-tag or GFP, C-terminal, kept
T1 sequence (looked up): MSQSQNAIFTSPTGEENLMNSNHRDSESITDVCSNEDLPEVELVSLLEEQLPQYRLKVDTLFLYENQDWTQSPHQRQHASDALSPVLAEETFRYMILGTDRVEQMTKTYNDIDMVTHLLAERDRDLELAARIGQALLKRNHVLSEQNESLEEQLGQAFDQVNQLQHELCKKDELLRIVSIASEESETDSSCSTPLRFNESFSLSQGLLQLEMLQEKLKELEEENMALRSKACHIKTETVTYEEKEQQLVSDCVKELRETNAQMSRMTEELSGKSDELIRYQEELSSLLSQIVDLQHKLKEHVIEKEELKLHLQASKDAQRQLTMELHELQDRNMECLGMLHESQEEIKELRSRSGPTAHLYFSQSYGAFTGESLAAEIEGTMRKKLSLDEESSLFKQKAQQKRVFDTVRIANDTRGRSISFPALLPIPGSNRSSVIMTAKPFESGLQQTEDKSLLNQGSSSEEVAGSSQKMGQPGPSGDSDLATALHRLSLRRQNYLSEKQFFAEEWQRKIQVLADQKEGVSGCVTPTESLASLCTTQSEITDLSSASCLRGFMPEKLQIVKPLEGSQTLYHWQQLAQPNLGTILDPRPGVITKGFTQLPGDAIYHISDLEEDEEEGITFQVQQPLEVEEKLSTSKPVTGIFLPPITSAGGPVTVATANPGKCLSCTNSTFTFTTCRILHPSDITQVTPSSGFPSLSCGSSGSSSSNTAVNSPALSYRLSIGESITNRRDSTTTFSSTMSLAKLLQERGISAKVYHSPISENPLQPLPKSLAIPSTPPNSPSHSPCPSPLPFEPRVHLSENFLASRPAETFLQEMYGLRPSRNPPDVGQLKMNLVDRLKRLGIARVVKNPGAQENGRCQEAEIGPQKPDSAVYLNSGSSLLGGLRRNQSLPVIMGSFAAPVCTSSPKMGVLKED
The experiment is described as follows: co-IP; purified proteins, 10 µg each, GFP-Trap beads, MB buffer with 100 mM NaCl and BSA; KIF5B-GFP-SNAPf, Miro1 1-592 and TRAK1 1-532, full-length TRAK1 or full-length TRAK2; with GTPγS or GDP; 0, 100 nM or 2 mM Ca2+. Conditions: both partners purified.

Experiment [2] has as its target T2, full-length TRAK1 (TRAK1^1–953) (human, UniProt Q9UPV9 1-953).
T2 construct: TRAK1, human, residues 1-953, full length; source: HEK 293 F GNTI-/- cells, PEI transfection, purified (TRAK purification procedure); not shown: His6-ZZ, N-terminal, cleaved; SNAP-tag or GFP, C-terminal, kept
T2 sequence (looked up): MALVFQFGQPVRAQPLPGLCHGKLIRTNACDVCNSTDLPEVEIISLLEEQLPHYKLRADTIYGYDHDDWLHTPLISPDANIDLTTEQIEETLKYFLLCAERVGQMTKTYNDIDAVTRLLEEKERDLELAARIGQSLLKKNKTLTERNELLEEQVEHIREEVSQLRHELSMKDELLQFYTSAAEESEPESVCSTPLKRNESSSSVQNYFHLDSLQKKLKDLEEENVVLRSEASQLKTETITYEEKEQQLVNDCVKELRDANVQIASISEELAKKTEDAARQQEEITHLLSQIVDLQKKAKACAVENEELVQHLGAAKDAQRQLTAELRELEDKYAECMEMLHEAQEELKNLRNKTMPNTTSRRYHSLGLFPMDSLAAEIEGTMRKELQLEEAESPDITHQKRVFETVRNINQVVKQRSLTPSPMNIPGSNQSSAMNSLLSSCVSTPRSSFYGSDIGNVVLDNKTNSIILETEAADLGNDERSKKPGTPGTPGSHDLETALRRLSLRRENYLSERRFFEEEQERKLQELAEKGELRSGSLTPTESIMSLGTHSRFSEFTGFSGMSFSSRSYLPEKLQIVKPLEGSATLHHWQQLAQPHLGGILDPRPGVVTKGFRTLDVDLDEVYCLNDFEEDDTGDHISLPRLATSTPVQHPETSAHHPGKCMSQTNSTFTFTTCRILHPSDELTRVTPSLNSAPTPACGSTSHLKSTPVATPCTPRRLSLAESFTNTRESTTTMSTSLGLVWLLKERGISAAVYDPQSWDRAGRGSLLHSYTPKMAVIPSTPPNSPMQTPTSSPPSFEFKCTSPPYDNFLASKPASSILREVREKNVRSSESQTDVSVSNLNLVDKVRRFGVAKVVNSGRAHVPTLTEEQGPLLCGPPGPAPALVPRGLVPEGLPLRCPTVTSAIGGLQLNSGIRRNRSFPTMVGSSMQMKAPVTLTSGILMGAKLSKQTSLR
The experiment is described as follows: single-molecule TIRF colocalisation on microtubules; three-colour imaging of Alexa488-KIF5B, LD555-TRAK1 1-532 (or full-length TRAK1) and LD655-Miro1 1-592; 10 nM MAP7; 0, 0.1 and 2 mM Ca2+. Conditions: both partners purified.

B1: Miro1^1–592 (Miro1^1–592-SNAP-psc-StrepII) (domain or fragment, human, UniProt Q8IXI2 1-592, looked up)
chain: MKKDVRILLVGEPRVGKTSLIMSLVSEEFPEEVPPRAEEITIPADVTPERVPTHIVDYSEAEQSDEQLHQEISQANVICIVYAVNNKHSIDKVTSRWIPLINERTDKDSRLPLILVGNKSDLVEYSSMETILPIMNQYTEIETCVECSAKNLKNISELFYYAQKAVLHPTGPLYCPEEKEMKPACIKALTRIFKISDQDNDGTLNDAELNFFQRICFNTPLAPQALEDVKNVVRKHISDGVADSGLTLKGFLFLHTLFIQRGRHETTWTVLRRFGYDDDLDLTPEYLFPLLKIPPDCTTELNHHAYLFLQSTFDKHDLDRDCALSPDELKDLFKVFPYIPWGPDVNNTVCTNERGWITYQGFLSQWTLTTYLDVQRCLEYLGYLGYSILTEQESQASAVTVTRDKKIDLQKKQTQRNVFRCNVIGVKNCGKSGVLQALLGRNLMRQKKIREDHKSYYAINTVYVYGQEKYLLLHDISESEFLTEAEIICDVVCLVYDVSNPKSFEYCARIFKQHFMDSRIPCLIVAAKSDLHEVKQEYSISPTDFCRKHKMPPPQAFTCNTADAPSKDIFVKLTTMAMYPHVTQADLKSSTF
modifications: LD655 dye on the SNAP tag in motility assays
notes: mitochondrial Rho GTPase 1 (Miro1), human, residues 1-592, lacks the transmembrane domain; A PreScission site (psc) stands between SNAP and StrepII; no cleavage is told; also called Miro1^1–592-StrepII; Miro1^1–592-SNAPf-StrepII; source: purified (Streptactin Sepharose, eluted with desthiobiotin); not shown: SNAP, C-terminal, kept; StrepII, C-terminal, kept
Take B1: the binding result in experiment [1] and in experiment [2] was “binds” in each case.

For the origin of these results see article PMC10011603, “TRAK adaptors regulate the recruitment and activation of dynein and kinesin in mitochondrial transport” (Nature Communications, 2023).
